{"source": "the DeepSol protein solubility set", "data": [{"assay": "soluble on expression in E. coli; label from the status in PepcDB or PDB records", "values": [{"sequence": "MSLKYVIGIDLGTSAVKTILVNQNGKVCAETSKRYPLIQEKAGYSEQNPEDWVQQTIEALAELVSISNVQAKDIDGISYSGQMHGLVLLDQDRQVLRNAILWNDTRTTPQCIRMTEKFGDHLLDITKNRVLEGFTLPKMLWVKEHEPELFKKTAVFLLPKDYVRFRMTGVIHTEYSDAAGTLLLHITRKEWSNDICNQIGISADICPPLVESHDCVGSLLPHVAAKTGLLEKTKVYAGGADNACGAIGAGILSSGKTLCSIGTSGVILSYEEEKERDFKGKVHFFNHGKKDSFYTMGVTLAAGYSLDWFKRTFAPNESFEQLLQGVEAIPIGANGLLYTPYLVGERTPHADSSIRGSLIGMDGAHNRKHFLRAIMEGITFSLHESIELFREAGKSVHTVVSIGGGAKNDTWLQMQADIFNTRVIKLENEQGPAMGAAMLAAFGSGWFESLEECAEQFIREAAAFYPKAQNVQKYKTLFDLYKNIYTHTKDLNTALKSFRKNEGHHHHHH", "soluble on expression in E. coli": "soluble"}, {"sequence": "MSLKYYLAPMEGITGFIYRNSYEKFFGGIDKYFAPFVVPNSSKSLKTKELRDVLPENNKGINLVPQILTNDSEGFISTARKLKQLGYNEINLNLGCPSGTVVGKKRGSGFLAHKEELDKFLEEIFKIDDMKLSIKTRLGMDKPEEFYELIKIYNKYPMEELIIHPRTRQDFYANKPNLEVFKDAISLSKNPICYNGDIFTVEDHNKLIETFPEVDKIMLGRGILANPALMNEILNNEFMDKKVLKEFHDEVFNKYREVFNEDRNAMFRMKELWGYMIYMFSNNKKYAKKIKKAQKVVEYNQAVTSLFLEQDILKGAGLFSSEEGHHHHHH", "soluble on expression in E. coli": "soluble"}, {"sequence": "MSLLAGVKLEKRDKTLVDATEALAGKAVGFYFSAHWCPPCRGFTPILKDFYEEVEDEFEVVFVSFDRSESDLKMYMSEHGDWYHIPYGNDAIKELSTKYGVSGIPALIIVKPDGTEVTKDGRNDVQNGKDPKATVAKWKA", "soluble on expression in E. coli": "not soluble"}, {"sequence": "MSLLITRFIADHQGHREGPDGLRWGVESICTQLTELGVPIAPSTYYDHINREPSRRELRDGELKEHISRVHAANYGVYGARKVWLTLNREGIEVARCTVERLMTKLGLSGTTRGKARRTTIADPATARPADLVQRRFGPPAPNRLWVADLTYVSTWAGFAYVAFVTDAYARRILGWRVASTMATSMVLDAIEQAIWTRQQEGVLDLKDVIHHTDRGSQYTSIRFSERLAEAGIQPSVGAVGSSYDNALAETINGLYKTELIKPGKPWRSIEDVELATARWVDWFNHRRLYQYCGDVPPVELEAAYYAQRQRPAEGHHHHHH", "soluble on expression in E. coli": "not soluble"}, {"sequence": "MSLLKINSQLFAIEDTLDDLAAAFLNLEVVRTYKAAQKAFLADKHLQKEISNFQHYNEDYNDQKTFIKYRPEVKQLRRKIFEKKRQLDLNEKVIALRRAEVDLQEVLAKIAQKIAESVSSDVFVDTGLPLAPHKPPHKKGYGNNIKEREGHHHHHH", "soluble on expression in E. coli": "soluble"}, {"sequence": "MSLLKISGKFFDEDNVDNLIVLRQSIKELADNGFRVGIVTGGGSTARRYIKLAREIGIGEAYLDLLGIWASRLNAYLVMFSLQDLAYMHVPQSLEEFIQDWSHGKVVVTGGFQPGQSTAAVAALVAEASSSKTLVVATNVDGVYEKDPRIYADVKLIPHLTTQDLRKILEGSQSVQAGTYELLDPLAIKIVERSKIRVIVMNYRKLNRIIDILKGEEVSSIIEPVEGHHHHHH", "soluble on expression in E. coli": "not soluble"}, {"sequence": "MSLLRIEPDLSHFKAGTYRFTPQMTVREMLKLLESGKEAQFPLRLVEGMRLSDYLKQLREAPYIKHTLSDDKYATVAQALELENPEWIEGWFWPDTWMYTANTTDVALLKRAHKKMVKAVDSAWEGRADGLPYKDKNQLVTMASIIEKETAVASERDQVASVFINRLRIGMRLQTDPTVIYGMGERYNGKLSRADLETPTAYNTYTITGLPPGAIATPGADSLKAAAHPAKTPYLYFVADGKGGHTFNTNLASHNKSVQDYLKVLKEKNAQEGHHHHHH", "soluble on expression in E. coli": "soluble"}, {"sequence": "MSLLSAFDTTAQRLGTASQNIEKDFWVCWTLDALFNGLSERGPRLLFKGGTSLSKGFGLINRFSEDIDVTVFRDDIGEPATIEELNVLSRNKRRARLDAIKEACQAYINGPLRAELTAILQKRLQAAGLSAGDARVEADGADSDGQTLLIWYPAATPRSDYVRAAIKIESGAKSALDPNSEVPIKAYVDDDLPALDLTVPAVRTVDPERTFWDKVVILHGLRRWFDKRGELRGGGQRVSRHYYDLHRLTAAPVGAAAIDDAALGADCVAHARMFFNRPDYDLATAAPGSFALAPHDEMIEQLRTDYRAMQGMIFGDPPSFEAVLKSINSLETQLNKDIANEGGPTREGHHHHHH", "soluble on expression in E. coli": "soluble"}, {"sequence": "MSLLVQFDEFKGHSHEQFMEELDTIMLVSINKLHDNMDLRRRLLIYSVFGKVFQHRKMGILAPHGQEETF", "soluble on expression in E. coli": "not soluble"}, {"sequence": "MSLMPLLDKLREQYGVGPVCSELHIAPSTYYHCQQQRHHPDKRSARAQHDDWLKREIQRVYDENHQVYGVRKVWRQLLREGIRVARCTVARLMAVMGLAGVLRGKKVRTTISRKAVAAGDRVNRQFVAERPDQLWVADFTYVSTWQGFVYVAFIIDVFAGYIVGWRVSSSMETTFVLDALEQALWARRPSGTIHHSDKGSQYVSLAYTERLKEAGLLASTGSTGDSYDNAMAESINGLYKAEVIHRKSWKNRAEVELATLTWVDWYNNRRLLGRLGHAPPAEAEKAYYASIGNDDLAAEGHHHHHH", "soluble on expression in E. coli": "not soluble"}, {"sequence": "MSLMQEETFYSVRMRASMNGSHEDGGKHISGGERLIPFHEMKHTVNALLEKGLSHSRGKPDFMQIQFEEVHESIKTIQPLPVHTNEVSCPEEGQKLARLLLEKEGVSRDVIEKAYEQIPEWSDVRGAVLFDIHTGKRMDQTKEKGVRVSRMDWPDANFEKWALHSHVPAHSRIKEALALASKVSRHPAVVAELCWSDDPDYITGYVAGKKMGYQRITAMKEYGTEEGCRVFFIDGSNDVNTYIHDLEKQPILIEWEEDHDSEGHHHHHH", "soluble on expression in E. coli": "soluble"}, {"sequence": "MSLMTEMQQRAQLHRQIWKIADEVRGAVDGWDFKQYVLGTLFYRFISENFTDYMQAGDSSIDYAAMPDSIITPEIKDDAVKVKGYFIYPGQLFCNIAAEAHQNEELNTKLKEIFTAIESSASGYPSEQDIKGLFDDFDTTSSRLGSTVADKNKRLAAVLKGVAELDFGNFENHHIDLFGDAYEYLISNYAANAGKSGGEFFTPQSVSKLIARLAVHGQEKVNKIYDPACGSGSLLLQAKKQFDEHIIEEGFFGQEINHTTYNLARMNMFLHNVNYNQFHIELGDTLTNPKLKDSKPFDAIVSNPPYSINWIGSDDPTLINDDRFAPAGVLAPKSKADFAFILHALNYLSGRGRAAIVSFPGIFYRGGAEQKIRQYLVEGNYVETVIALAPNLFYGTGIAVNILVLSKHKDNTDIQFIDASGFFKKETNNNVLIEEHIAEIVKLFADKADVPHIAQNAAQQTVKDNGYNLAVSSYVEAEDTREIIDIKQLNAEIGETVAKIERLRREIDEVIAEIEAEGHHHHHH", "soluble on expression in E. coli": "soluble"}, {"sequence": "MSLNASAPIPLNETQRLLRIRELCVLENTSDDVFDEIVAMTADFFQTPIALISIVDEHRQWFRARVGLNAQETPRNVSFCAYTILSDSLFEIPDATLDDRFMNNSLVTGHPDIRYYAGAPLITDDGIALGSLCVIDTKPREPMSEHQMQMLKRFASLVMKRIVSLRLSCFIDQPTGLYNRSRLQEDIHQALLSSVDYQLVVVDMITSAFLNDIVKALGYSFSQDLVTEIKSRLEHLLPPTCSLYKVSPTRFGFLLPGERAPDHLFRTILEDFETPVECRGIPVQMQVGLGVVTLNRDPTEEQDWMRMVISAADDARDRNLGWAMYEPHFDAAQQRAFKLLSSLTSAVHSHDQLRLVYQPRIDLASGLCTSVEALLRWNHPTLGPIGPAEFVPLAEKTALMRPLSLWVLTSAIEQAARWQQQGFDFRIAINVTPEDLTGPAFTDRMIRLLGQHKIDPTRFELEFTEGALMHNPAEVRHQLERMRQMGMDVAIDDFGTGYSNWNYLRQLPATTVKLDQSLIRNLASDKTDQRLVKALIGLAKKLGYCVVAEGIETDEIRRLVKQWGCDEGQGYLISKPMEADAVLNWLGPDRRLQTVTEAAEAAVIRDKRLEGHHHHHH", "soluble on expression in E. coli": "soluble"}, {"sequence": "MSLNEEQLSKRLEKVASYITKNERIADIGSDHAYLPCFAVKNQTASFAIAGEVVDGPFQSAQKQVRSSGLTEQIDVRKGNGLAVIEKKDAIDTIVIAGMGGTLIRTILEEGAAKLAGVTKLILQPNIAAWQLREWSEQNNWLITSEAILREDNKVYEIMVLAPSEKPVTWTKQEIFFGPCLLKEQSAIFKSKWRHEANTWQNIIQTISNNQPVSTENQAKIRELEHKIALVEDVLKEGHHHHHH", "soluble on expression in E. coli": "soluble"}, {"sequence": "MSLNEHKHNYNMKINCLLALALSASSLAAQDAVIRVDAGKVENKITPYLYGACMEDVNHEIYGGLYDQKIFGESFEEPVSMDNFIGFTRCEGVWKLQDGQLSVQAHPGAKLVYDDTQLSDGTVGVDLKFTNGTSSSNNAGLLLRVGEYGGGADNFDGYEVSLFADGKRLLLGKHLHNWQELKTTPVDVDPMQWNRMEVKLDGDELVILLNDCEVLRFEDRDTGLRNGKVAFRNWGADVSYRSLTIGSNTPVKLLTKATPQVSGMWDAFADLTAAAVYKQIADKPFHGRYAQEIEYLVGTGKVGIANRSLNRWGISVRQGEKKTGSLYLKGKAEVRVALQSVDGEKEYAVQCIRANAGDWKKYTFELTPDKTDENARLAIYLEEKGRIQVDMVTLMNGADRQFCGLPLRNDIGQAMVDQGLRFLRYGGTMVNAPEYRFKKMIGDRAERPPYKGHWYTYSTNGFGIEDFLHFCEKAGFMPAYAVNVEESAQDMADMIEYLNGSVDTKWGKKRAENGHPEPYGLKYLEIGNEEVIWGDIEADYQHYIDRFNDIYEAVHAKDPEVQFIHSAWWRPESPNMEKVFKALDGKAAYWDYHPWTDDLGSHVNIDRELTDMKAKFLKWNPKTSMRCAIFEENGNLHNVQRAIVHATVQNVVRRHGDFILTTCAANALQPYLQNDNGWDQGQIFFTSGQVWGMPTFYAQQMSSAHHHPLRLWSETVGELDMTATTNEARDEVILHVVNTSSEVRETQVSLSGFIPKGNMEIYTLSGELNDENLPDTPTWILPKATWKQAPGSDFTYSFPGYSYTIVVLKEGHHHHHH", "soluble on expression in E. coli": "soluble"}, {"sequence": "MSLNEITLNVLYNLPGFTKFHQPLADEFMKKNPDVKINFLAPAAGYNEGQQQVLRSAVTGNLPDVYFSGYNLTAELVHTLAPRNQITDLGPFIQAEGGQAFLDKNYSPKMAALGQIDGKQYGLPVNASSPIIYINSDLVTKAGGDPDKMPTTFPELIALAKKIKALDPKFAGMSYDINGWPDDWLWQALVVEQGGKLVDDKTKTVAFDNEIGLNALKMTRQFVTEGGQNLLDWDQSRQQFGAGLTGFIFSTPAHVQTIQGLVGDRFKLKTATFPLDNKEKGGVPTGGNSAVILTQEKAKQDAAWKYLKWITGPEAQNTIVRITGYLPTNKLATGPDFLAPYYVENPNVKTASLQADRSLPWAGYPGGDSVRIWRTQRDIIGTVMRGEVTPEAGLKQIVEQTNALLKEGHHHHHH", "soluble on expression in E. coli": "soluble"}, {"sequence": "MSLNETYMMITFQSGMDYWKRCLKGFEDAAQALNVTVEYRGAAQYDIQEQITVLEQAIAKNPAGIAISAIDPVELTDTINKAVDAGIPIVLFDSGAPDSHAHSFLGTNNYNAGMNAAYKMAELLDGEGEVAVITLPNQLNHQERTTGFKETLEAEFPAIEVIAVEDGRGDSLHSRRVAHQLLEDYPNLAGIFATEANGGVGVGDAVRLESRAGEIQIISFDTDKGTLDLVDEGIISATLAQGTWNMGYWSLTYLFHLHHGLTEPQILQTREEAPLPLYVDTGITIVTDENVDYYYADEGHHHHHH", "soluble on expression in E. coli": "soluble"}, {"sequence": "MSLNGEGAVPTLVGYGADTAIETSRRTSRPLAAPVVRKLAKELAVDLAALQRGSGAGGVITRADVLAAARGGVGAGPDVRPVHGVHARMAEKMTLSHKEIPTAKASVEVICAELLRLRDRFVSAAPEITPFALTLRLLVIALKHNVILNSTWVDSGEGPQVHVHRGVHLGFGAATERGLLVPVVTDAQDKNTRELASRVAELITGAREGTLTPAELRGSTFTVSNFGALGVDDGVPVINHPEAAILGLGAIKPRPVVVGGEVVARPTMTLTCVFDHRVVDGAQVAQFMCELRDLIESPETALLDLEGHHHHHH", "soluble on expression in E. coli": "soluble"}]}]}
